Test [1] concerns the target T1, human CCR5 (Homo sapiens, UniProt P51681). The test can be described thus: Migration (chemotaxis) assay with CHO-K1-hCCR5 cells, ATPlite readout. Details: Production of the full length protein was confirmed by western blot; expressed in transfected cells; host or cells: CHO-K1. It counts as cell-based. Particulars: for chemotactic response / direct induction of migration, agent alone: single agent over its concentration range (MVC 0.0045-10 μM; CCL5 0.0007-0.50 μM), FIG. 4, FIG. 5; for concentrations at which CCL5 induced migration was inhibited: constant dose of CCL5 0.005 μM. An excerpt:
This experiment was designed to investigate the role of PRO 140 on chemotaxis induced by CCL5 engagement of the CCR5 receptor on CHO-CCR5 target cells (CHO-K1 cell line).
a. Cell Lines: The CHO-K1 cell line was transfected with a human CCR5 expression plasmid and selected for expression. Production of the full length protein was confirmed by western blot. Fluorescence-activated cell sorting (FACS) analysis was used to sort for cells that expressed CCR5 on the surface and these cells were purified and expanded.
b. Methods: Migration assays were done in Multiscreen MC plates using CHO-K1-hCCR5 cells in the upper chamber and with media and test agents in the bottom chamber. The agents tested included: PRO 140, Maraviroc (MVC), CCL5, forskolin (FSK), and an IgG4 control as single agents, and PRO 140+CCL5, and Maraviroc+CCL5 as combined agents. The effects on the Chemotaxis Index were measured over a wide concentration range of the test substance. The Chemotaxis Index was calculated as the migration of cells into the lower chamber with a test substance divided by the migration of cells into the lower chamber without the test substance or with a control substance. Migration was measured using the ATPlite assay. All assays were performed in triplicate. Data analysis was determined by the Chemotaxis Index over a wide concentration range of the test substance. Dose ranges of test agents were as follows: PRO 140 was 0.0045-10 ug/ml; MVC was 0.0045-10 μM; CCL5 was 0.0007-0.50 μM; FSK was 0.0045-10 μM; IgG4 control was 0.0045-10 μg/ml.
A general note: In ATP-based viability assays light output follows the ATP content of the culture.

The target of test [2] is T1, human CCR5. The test can be described thus: cAMP accumulation in primary CD4+ CCR5+ T cells (radioimmunoassay). In kind it is cell-based. On the set-up: Primary CD4+ cell lines were prepared from healthy human donors and grown for 7-10 days prior to sorting for CD4+ CCR5+ T cells; endogenous in cells; host or cells: primary human CD4+ CCR5+ T cells (PHA/IL-2 expanded PBMC, FACS sorted). Particulars: for cAMP accumulation (stimulated): single agent with rolipram 20 uM and forskolin 10 uM; for cAMP accumulation (stimulated) / cAMP accumulation (unstimulated, basal): PRO 140 1 ug/ml, CCL5 0.1 uM; for cAMP accumulation (unstimulated, basal): single agent with rolipram 20 uM, 37° C., 10 minutes; for effect on cAMP levels as single agent: single agents, CD4+ CCR5+ T cells. The protocol:
The first set of experiments was designed to see if PRO 140 has antagonist and/or agonist activity for alternative signaling pathways known to be activated downstream of CCR5 engagement, such as G-protein mediated modulation of intracellular cyclic AMP (cAMP) or specific tyrosine kinase activation.
a. Cell Lines: Primary CD4+ cell lines were prepared from healthy human donors and grown for 7-10 days prior to sorting for CD4+ CCR5+ T cells. PBMC were stimulated with 1 ug/ml of PHA-L Sigma (2E6/well in 24 well plates). PHA lines were expanded using 30 U/ml IL-2 for 24 hours after stimulation and every other day until FACS sorting for CD4+ CCR5+ T cells (on days 7-10). FACS sorting was done using anti-human CD4-percp-Cy5.5 clone RPA-T4, Mouse IgG1k, at 25 ug/ml, with a working concentration of 0.125 ug/ml. Anti-human CCR5-PE clone NP-6G4, Mouse IgG1k, concentration 25 ug/ml, working concentration 1.25 ug/ml was used.
b. Methods: Cell lines were assayed for cAMP levels in the absence or presence of rolipram (20 uM, a cyclic nucleotide phosphodiesterase-4 (PDF-4) inhibitor) with either no addition (basal cAMP) or in response to forskolin (FSK) (10 uM, a non-specific activator of cAMP synthesis), PRO 140 (1 ug/ml), forskolin+PRO 140, CCL5 (0.1 uM), CCL5+ forskolin, or PRO 140+ CCL5+ forskolin. Incubations (0.5E6 cells/ml) were conducted at 37° C. for 10 minutes and then terminated by addition of ice-cold 7.5% trichloroacetic acid (TCA). cAMP was quantified by radioimmunoassay. Statistical significance was determined by unpaired, one-tailed t test analysis using GraphPad prism software, version 4.0
(In general: Changes in cAMP serve as a functional read-out for many G protein-coupled receptors.)

The text below walks through data of patent US20190002571A1, “INHIBITION OF CCL5 LIGAND BINDING TO CCR5 RECEPTOR AND ALTERATION OF CCR5/CCL5 AXIS SIGNALING IN INFLAMMATION, CANCER, AUTOIMMUNE, AND OTHER CONDITIONS” (CytoDyn Inc., priority 2015, published 2019).

T1 sequence (P51681 whole entry): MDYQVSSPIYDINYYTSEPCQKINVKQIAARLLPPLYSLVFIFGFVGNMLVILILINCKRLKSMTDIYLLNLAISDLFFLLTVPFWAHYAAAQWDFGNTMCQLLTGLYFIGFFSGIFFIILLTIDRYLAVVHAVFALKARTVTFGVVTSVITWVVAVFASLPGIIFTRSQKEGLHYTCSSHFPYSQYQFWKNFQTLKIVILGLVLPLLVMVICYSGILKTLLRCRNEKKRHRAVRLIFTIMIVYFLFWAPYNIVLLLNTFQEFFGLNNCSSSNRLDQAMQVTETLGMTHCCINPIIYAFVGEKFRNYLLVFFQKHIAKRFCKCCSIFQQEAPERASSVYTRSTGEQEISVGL

For the molecule “CCL5: C-C chemokine ligand 5, inflammatory chemokine also known as RANTES; natural CCR5 ligand [reference compound]”, in the test with human CCR5 [1], the “chemotactic response / direct induction of migration, agent alone” value is listed as “pronounced”. Further, the “cAMP accumulation (stimulated)” value in the test with human CCR5 [2] (FIG. 2) is given as 3800 fmoles cAMP/0.5E6 cells. The “cAMP accumulation (unstimulated, basal)” value with human CCR5 [2] (no forskolin, FIG. 1) is on record as 60 fmoles cAMP/0.5E6 cells. The “effect on cAMP levels as single agent” value with human CCR5 [2] was “decreased cAMP levels”.
Take Maraviroc: on human CCR5 [1] (MVC alone, FIG. 4), the “concentration range in which the chemotactic response was significant” value is “above 0.01 μM”. In addition, at human CCR5 [1] (FIG. 5), the “concentrations at which CCL5 induced migration was inhibited” value was “above 0.05 μM”. Further, at human CCR5 [1] (listed as MVC), the “chemotactic response / direct induction of migration, agent alone” value was “significant direct induction of migration”.

B1: PRO 140: a known humanized monoclonal antibody CCR5 antagonist with anti-HIV properties (antibody, chains of the INN, looked up, V domains shown)
VH: EVQLVESGGGLVKPGGSLRLSCAASGYTFSNYWIGWVRQAPGKGLEWIGDIYPGGNYIRNNEKFKDKTTLSADTSKNTAYLQMNSLKTEDTAVYYCGSSFGSNYVFAWFTYWGQGTLVTVSS
VL: DIVMTQSPLSLPVTPGEPASISCRSSQRLLSSYGHTYLHWYLQKPGQSPQLLIYEVSNRFSGVPDRFSGSGSGTDFTLKISRVEAEDVGVYYCSQSTHVPLTFGQGTKVEIK
Consider B1, for which the “Chemotaxis Index (chemotactic response), agent alone” value in the test with human CCR5 [1] (FIG. 4, PRO 140 alone, concentration range 0.0045-10 μg/ml) is 0. In the test with human CCR5 [1] (FIG. 6, PRO 140 alone, concentration range 0.0045-4.0 μg/ml), the “Chemotaxis Index, agent alone” value was “less than 3”. Moreover, the “concentrations at which CCL5 induced migration was inhibited” value in the test with human CCR5 [1] (FIG. 6) is “above 0.4 μg/ml”. For the same molecule, the “effect on CCL5 triggered decrease in cAMP levels” value with human CCR5 [2] (PRO 140 combined with CCL5) is “diminished the effects of CCL5 on decreasing cAMP”. Besides, in the test with human CCR5 [2] (rolipram + PRO 140 1 ug/ml + CCL5 0.1 uM + forskolin 10 uM, FIG. 2), the “cAMP accumulation (stimulated) in the presence of CCL5” value is 5700 fmoles cAMP/0.5E6 cells. In addition, the “cAMP accumulation (unstimulated, basal) in the presence of CCL5” value with human CCR5 [2] (rolipram + PRO 140 1 ug/ml + CCL5 0.1 uM, no forskolin, FIG. 1) was 107 fmoles cAMP/0.5E6 cells. Further, in the test with human CCR5 [2] (FIG. 2), the “cAMP accumulation (stimulated)” value was determined as 6300 fmoles cAMP/0.5E6 cells. Besides, the “cAMP accumulation (unstimulated, basal)” value in the test with human CCR5 [2] (no forskolin, FIG. 1) stood at 110 fmoles cAMP/0.5E6 cells. Moreover, the “effect on cAMP levels as single agent” value in the test with human CCR5 [2] is “no effect on cAMP levels”.
